Assay results: the DeepSol protein solubility set

test: soluble on expression in E. coli; label from the status in PepcDB or PDB records

**Q.** Which “soluble on expression in E. coli” value does the source give for “MGSDKIHHHHHHMASLTANIQTQEERKRSLPAQLVVSLVIAMSLWSKDSMRDVLKNLIDGLSEAWLKVGKYWRVACKSAITQARQRLGARVMCKLFHQLVKPMATQETLGAFLQELRIVVIDGSCFDVPDSDENARVFGRPGSRPGTKAAFPKVRLVILVEAGTHIIFDALMWPYRIGERVRALRLLRSVTPGMLLMWDRGLHSYAMVQATVTKGCDYLGRIPANIKFIAEKPLEDGSYLSWIYPSGKLRKKASQPILVRIIEYTIEHPDNPTEQLTYRLITSLLNIEKFPAELLAREYHQRWEVENTIDELKIHLLGRKTHVRSQKPREVVQEVYAWLLGHWTVRLLMFQAATSAGVAPLRLSFTGTLRVIRRAVPKFQRLNSQDLPLFLSG” here?
**A.** not soluble

**Q.** Which “soluble on expression in E. coli” value does the source give for “MNQEVRFSRLEPEQRKALLIEATLACLKRHGFQGASVRKICAEAGVSVGLINHHYDGKDALVAEAYLAVTGRVMRLLRGAIDTAPGGARPRLSAFFEASFSAELLDPQLLDAWLAFWGAVGSIEAIGRVHDHSYGEYRALLVGVLRQLAEEGGWADFDAELAAISLSALLDGLWLESGLNPATFTPRQGVQICEAWVDGLEAGAHRRFRRAMEAC” here?
**A.** soluble

**Q.** For “MSLSLPRWKQIVHMLYLKMEFISGGELGEALAVNPRTIRNDIKVINQILMIGGNRIESLPGVGYRLVIGDEKALREALLDDSIGRANMNIVPMFAEDRADYIIRYLLLKNDYVKLETLSEELFVSKSTINLDILEVKRKLKENELKVEKRAGYGIRITGAELAIRFCFSRYLLVESTSPLITETEINFFGEVNLEMMEQIVVSNIAKYNIHMTDISVKNLIIHIAIAVCRVKDNCYVPATDLEDIEFSMPELRAAQGIIKEIDLSEGIRFPESETAYLLLHLSSKNRKSDFNNYREYIIVDKMLEKIKELYGYDFKQDQKMISNIALHLKPAINRIKFNMNIQNPYLKNLKANYPLAFELGLVAKEVLEQELKTNVDEAEVGYLAIHFLYGLDKEEGHHHHHH”, which “soluble on expression in E. coli” value is on record?
**A.** soluble

**Q.** Which “soluble on expression in E. coli” value does the source give for “MGSDKIHHHHHHMIFLIFSILFLHLANCDYTPDWESLDNRPLPSWYDDSKFGIFCHWGLYSDDNDKNKKYKTRSEWMWWYWKGTQPDKDVVNFVDKNYKPGTTYADFAKDVCNILLFAIESDFCSLPQSISMRINLLKLYFVFTSKHHEGFTMWPSRTSWNWNSMDIGPKRDIVGELRDAFKKTDVHFGLYFSQFEWFHPMFLDDGKFNTTFYPEQVSYPQMIDIVTKYNPEVVWSDGEWDKSDDYWKAKEFLAWLYNSSPVKDQVVVNDRWGTGTMGKHGGFMTYSDHYDPGKLLEKKWENCMTLDKHSWGNRRDMKASEVNTAYEIIEQLARTIACNGNLLLNVGPNMHGQIPAIFEDRLEEIGRFVNITSEAIFGTRPWIHQNDTSASNVWYVEFQQLSTHVFSGILPNIHRERSH” here?
**A.** not soluble

**Q.** Which “soluble on expression in E. coli” value does the source give for “QRRLEVKGVVNNITVYDDFAHHPTAITATIDALRAKVGQQRILAVLEPRSNTMKMGVHKHELATSLQDADSVFIYQPPTIEWQVSEVLANLAQPAISADDVDELVMRIVQQAKPNDHILIMSNGAFGGIHQKLLTALANAFLMPS” here?
**A.** not soluble

**Q.** For “MSLDLNKYKDRIITLAKPYLNREFDFADVKLTLISGLGVEINGLRIADNPEFGSEDFLSLQSLRIKVALFPLLKKKIQIKKLIMDEPVVRLVRNSNGVFNFSDMASDAEEDEKPQAKDEKRKEKKSGSEKKPDSEHNIFLAGLMVSQFTLHSGQIHFLDNFVPDAPVTMVFDSLNIELKNVSLYKPIRIYASAGLQGTTEQNLLIKGMVGPVGDNMDLVGLAMDIHVSVQNVFLHKFVPYIPDGLMLSPLEGILYMTANIKGSVHSGLDLESVIQGEKLVMSIKDSDEKIQNVNITLKEKIKYDDRKGDIGFQQLDLALNDNNVSLTGTIENIKTDPQWDVTLMAKMNALDEALALYPVFKEALPQDFRFTGPLNMEITSSGSKDAMQISGHTDMTRAEILYGEVFKKQKNIPFQISLKANKIADIIQLEAFAVNLQNASLNSSGSIEDMVNPRFDLVSTANEFSLKGWDAIVPLLKEYEPEGSVSIKNYMKGNFDDAFVNLHVSSPKLLFKFPASSDKKEDENTKQRKDVAESIRFELLAKKLADNITADGGLEMGNGTILDINFEEAKGKYSFQDDILKIQSFQMRTFEGDISLTGNYDSKSMQWDASPIINAVRIDGVVDAFTQYRGMMKGVFSGSFDMGGSLGKNDKMVTNANGSFRLLQGEIENVNLMETIIDSLLGIKEVYKYAGEKKDVLEKYDVTRFDSLDGEFSLLNDMLDLKKCYLENIYTPDVPGSDAKLKGDINFDTGKLDLSGKVILSSEHSEKLTKKAKPLKALLNEKGNIVLPVTVTGTMSNPKPLLDTSYVLNAMMNYYGKEELEKGLDKLKGKLGLEKLGLEKLWQKDEGHHHHHH”, which “soluble on expression in E. coli” value is on record?
**A.** not soluble

**Q.** Which “soluble on expression in E. coli” value does the source give for “MPPASLTFEPPSVVAVFATHAVLCWEQPRTPHTTSFAEHMAWEYQIEYNCSCRVRQQPYCATGSNTFVLLATPHEGETYYVRVVAKASFAGSTSGLVSAKAAFTASCNVAMPWRCSARPPVCVFDALYLSANVEAEDIAALSAARSSTIDNAAVLDGKSVCYTLEGDIAVRTYRMLYSGTAALPVGPARTVYYMVATTRLHTGKRTRAMELLSIMQREGASIVFCGIGDGGRLALCAALTFLSFLTTACPALCASVLCITYGTPRLLLKEGPRLLAHTLPLSGQLLHFTQLPLIEHTPFVSDTVALSQRGSGVAVDTPPLGYANGFYRNMLLGAQCRVTDWTGLHFRLSSPDELSTEAEEAEVFDVVGQLRALSELFFPSSLQWLSPSVTSVSCRTEGPLLHVSVEGLTCITALG” here?
**A.** not soluble

**Q.** With “MVIMSSTFMGYERENGRIGTRNHVLIIPVDDLSNTVAAAVENNIFGTRAILHPYGRLQFGADLDLTFRTLAGYGRNPNVASAIVVGIEDNWTNRIADQISQTGKHVETVSIEGSGDLKAIEKASRLAKEMAQESSTKTRKEFDVSNLIVSTKCGESDTTSGLASNPTVGVVFDRLVDEGATVIFGETSELTGAEKYIAEKMANNELKDKFMKIFNDYQDVIKSQGVDLLGSQPTEGNIKGGLSTIEEKALGNIQKAGTKKITGVLDYAEEPKSKGLNFMNTSSAAAEAVTLFAAAGAVVHLFTTGQGNIVGNHILPVIKTTANPKTAKNMAEHIDLDLSGLLKFEYTLKDAGDKLYNLLLETASGKLTSNEVLKHYEFALTKLYISA” as the sequence, how does the “soluble on expression in E. coli” value read?
**A.** not soluble

**Q.** Which “soluble on expression in E. coli” value does the source give for “MNLSTKQKQHLKGLAHPLKPVVLLGSNGLTEGVLAEIEQALEHHELIKVKIATEDRETKTLIVEAIVRETGACNVQVIGKTLVLYRPTKERKISLPR” here?
**A.** not soluble

**Q.** With “MALRWGIVSVGLISSDFTAVLQTLPRSEHQVVAVAARDLSRAKEFAQKHDIPKAYGSYEELAKDPNVEVAYVGTQHPQHKAAVMLCLAAGKAVLCEKPMGVNAAEVREMVTEARSRGLFLMEAIWTRFFPASEALRSVLAQGTLGDLRVARAEFGKNLTHVPRAVDWAQAGGALLDLGIYCVQFISMVFGGQKPEKISVMGRRHETGVDDTVTVLLQYPGEVHGSFTCSITAQLSNTASVSGTKGMAQLLNPCWCPTELVVKGEHKEFLLPPVPKNCNFDNGAGMSYEAKHVRECLRKGLKESPVIPLVESELLADILEEVRRAIGVTFPQDKH” as the sequence, how does the “soluble on expression in E. coli” value read?
**A.** soluble

**Q.** For “ARPAFVNKLWSMVNDKSNEKFIHWSTSGESIVVPNRERFVQEVLPKYFKHSNFASFVRQLNMYGWHKVQDVKSGSMLSNNDSRWEFENERHA”, which “soluble on expression in E. coli” value is on record?
**A.** soluble

**Q.** For “MKITTEALRWWEDGETVGGRDLVGGGTWLGCTRHGRLAFLTNFKEASSFPAAKSRGDLPLRYLQSEKSPAEFAEEIQDEISLYNGFNLVVAHVLSKSMIYITNRPPHGDKLVTQVSPGIHVLSNANLDSPWPKVNSPNCVFLSLQCLRLREGFQQLLAENGSGEFPVKTMVEEVMTNTVKDEETELPHVFTPETEYHLSSIFVDMQRPTGRYGTRSISAIIVKSHGDGGGDGEICFYERHLEEGDSWKEHTQQFVIIQNQSI”, which “soluble on expression in E. coli” value is on record?
**A.** soluble

**Q.** With “MGSDKIHHHHHHMFTSNQGAGRMNKEVGMDNPGLDVYLRDQKIGRLWLDDKRRFVFQYDSEWTHQKGAVPLSLHLPLREEIYPDDLARPFFSNLLPEAEVKRAIAQRLRISESNDFALLNSIGGECAGAVSVLPAGVAPAMKPGYRELSEEELHRIIIELPRRPLLAGVEGMRLSLAGAQNKLPVYMEDHRIFIATGNAPSSHILKPPIRDLEDTVGNEAFCMILAQRLGLQVPVVTIRRGLDRIFIIARYDRSRDTDGHIVRLHQEDFCQALGFLPEQKYENEGGPSLKQCFTLLQEKSIRPAADRMALLRWTIFNLLIGNDDAHAKNLAMIFTDRGPRLAPFYDLICTQVYPDLTEKQAMRIGGENRPSWILQKHWDRFSESTAIKPNLVLKTLKEMSAAIALAAQTLSSEFIKKYGTCTIIEEILAVIEKRAESV” as the sequence, how does the “soluble on expression in E. coli” value read?
**A.** not soluble

**Q.** Which “soluble on expression in E. coli” value does the source give for “MKVTNLFKDKVDAISAHQSEFMNWMSPTLRDYWSDFLGKAQNSFLFSNVRDHNQPAVNEEVAPQPAPIVLQPEAQKLYDELSGKIGEVIHTGDWVHVSQERINQFGAVTEDMQWIHTDPERASVESPFKTTIAHGFLTLALLPKLTDSVDADKPLFPTAKLVVNLGLNQVRFPYPVKAGNNVRAVSTLTKVTPIKKGLEIEREIKVEIEGVRRPGAVVVSVIQLHFLEHHHHHH” here?
**A.** soluble

**Q.** For “MGFEDLVEVTTMIADLTTDQREALLLTQLLGLSYADAAAVCGCPVGTIRSRVARARDALLADAEPDDLTG”, which “soluble on expression in E. coli” value is on record?
**A.** soluble

**Q.** For “MSHVDDGFRSLTLKRFPQTDDVNPLLAWEAADEYLLQQLDETEIRGPVLILNDTFGALSCALAEHSPYSIGDSYLSELGTRENLRHNGIAESSVTFLDSTADYPQAPGVVLIKVPKTLALLEQQLRALRKVVTAQTRIIAGAKARDIHTSTLELFEKVLGPTTTTLAWKKARLINCTFSHPQLADAPQTLSWKLEDTGWTIHNHANVFSRTGLDIGARFFMQHLPENLDGEIVDLGCGNGVIGLSLLAKNPQANVVFVDESPMAVDSSRLNVETNLPEAFERCEFMINNALSGVEPFRFNAVFCNPPFHQKHALTDNIAWEMFHHARRCLKINGELYIVANRHLDYFHKLKKIFGNCATIATNNKFVILKAVKQGRRR”, which “soluble on expression in E. coli” value is on record?
**A.** not soluble

**Q.** For “MLSEVLLVSAPGKVILHGEHAVVHGKVALAVSLNLRTFLRLQPHSNGKVDLSLPNIGIKRAWDVARLQSLDTSFLEQGDVTTPTSEQVEKLKEVAGLPDDCAVTERLAVLAFLYLYLSICRKQRALPSLDIVVWSELPPGAGLGSSAAYSVCLAAALLTVCEEIPNPLKDGDCVNRWTKEDLELINKWAFQGERMIHGNPSGVDNAVSTWGGALRYHQGKISSLKRSPALQILLTNTKVPRNTRALVAGVRNRLLKFPEIVAPLLTSIDAISLECERVLGEMGEAPAPEQYLVLEELIDMNQHHLNALGVGHASLDQLCQVTRARGLHSKLTGAGGGGCGITLLKPGLEQPEVEATKQALTSCGFDCLETSIGAPGVSIHSATSLDSRVQQALDGL”, which “soluble on expression in E. coli” value is on record?
**A.** soluble

**Q.** With “MDIPRIFTISESEHRIHNPFTEEKYATLGRVLRMKPGTRILDLGSGSGEMLCTWARDHGITGTGIDMSSLFTAQAKRRAEELGVSERVHFIHNDAAGYVANEKCDVAACVGATWIAGGFAGAEELLAQSLKPGGIMLIGEPYWRQLPATEEIAQACGVSSTSDFLTLPGLVGAFDDLGYDVVEMVLADQEGWDRYEAAKWLTMRRWLEANPDDDFAAEVRAELNIAPKRYVTYARECFGWGVFALIARLEHHHHHH” as the sequence, how does the “soluble on expression in E. coli” value read?
**A.** soluble

**Q.** Which “soluble on expression in E. coli” value does the source give for “MSLRSYLGSISTSKTEVNSMKMHVLKLLIPTMALLLSACASLPPELGNPDDKSVVTQYSAWLERDPATQSPVRMGGVVANISNQKDRTRVELVNLPIDSAGRPNIHQEPQGRFVAYVPGFLDPITYGEGRLLTLYGTTAPSEQGKVGDYEHTYPVMNAQGYHLWRVEERVEVDDIGPYMFPCRGFYCWPRTMPERDGKIIQEVKEGGSHHHHHH” here?
**A.** soluble

**Q.** For “MADKDTYTGFCIIKEGTKISKSGWEVLSFTTQEASGEGAGNGLAKCLIDGDTETFWHAKWQGGSDPLPYDIVIDMKQNIQIAQVELLPRGRGSNNPIKVVEFAASEDNVNWTPIGRFGFTNQDAALEYYVKSIKARYIRLTIPDDGGNSTVAAIRELDVKGTIINLEHHHHHH”, which “soluble on expression in E. coli” value is on record?
**A.** soluble
